System: mouse embryonic fibroblasts (MEFs)
Assay: Cellular uptake of FITC-peptides by ImageXpress high-content microscopy
Details: MEFs 2×10^4 cells, 0% FBS, dose varied; text 2 hours, legend 4 hr

BIM BH3_1: unmodified template peptide FITC-BIM BH3_1 (aa 146–166)
TIFI versus FITC-peptide dose, result in words: linear, dose-responsive increase in TIFI

From paper PMC5055751 (Nature chemical biology, 2016)
